The values below are quoted from earlier work in PMC3150215.

Where two headings read alike, the source gives them in different places.

Data set [1] has as its target Capping protein (Mus musculus) (UniProt P47753).
Data set [2] shares this target. The source holds these as a separate data set.

As to “CARMIL CBR115 CBR115 (from UniProt Q6EDY6)”, the dissociation constant Kd – broadly, the constant that tells how readily two partners part at equilibrium – in data set [1] is 1.5 nM.
With CD2AP 474-513 (from UniProt Q9Y5K6), the Kd in data set [2] is 6 nM.
